First the molecules themselves.
B1: recombinant cynomolgus monkey IL-21 (ligand)
chain: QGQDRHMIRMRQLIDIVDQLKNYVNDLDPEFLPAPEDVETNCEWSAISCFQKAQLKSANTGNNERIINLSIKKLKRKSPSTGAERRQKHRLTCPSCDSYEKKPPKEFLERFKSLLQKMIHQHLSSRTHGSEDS
notes: also called cyno IL-21; cynoIL-21
B2: K44VHa-N56Q (MEDI7169) (antibody, V domains shown)
VH: QVQLVQSGAEVKKPGASVKVSCKASGYTFTDYWMHWVRQAPGQGLEWMGTIDPSDQYTIYSQNFKGRVTMTRDTSTSTVYMELSSLRSEDTAVYYCARYGFAMDYWGQGTLVTVSS
VL: DIQLTQSPSSLSASVGDRVTITCRASQDISNFLNWYQQKPGKAVKLLIYYTSRLHSGVPSRFSGSGSGTDYTLTISSLQPEDFATYYCQQGHTLPRTFGGGTKVEIK

Experiment [1] concerns the target B2. In words: KinExA solution-phase equilibrium titration: fixed 50 pM K44VHa-N56Q (MEDI7169) IgG, cynomolgus monkey IL-21 varied; free IgG captured on IL-21-coated beads (the competitor). As to the method:
(§1) The IL-21-coated Azlactone bead slurries were diluted to 30 mL with instrument buffer (PBS, pH 7.4, 0.02% NaN3) in a bead vial and affixed to the KinExA instrument. A user-defined timing program was used to sequentially transfer the IL-21/Azlactone beads to a capillary flow cell in the instrument, and individual sample mixtures were injected over the IL-21-coated beads. Unbound sample solution was removed by washing the beads with instrument buffer. A 1- or 2-μg/mL solution of the DyLight649-labeled, goat-anti-hulgG(H+L) secondary reagent (Thermo Scientific) was passed over the beads to detect receptor (K44VHa-N56Q) that remained bound to the IL-21-coated beads. […] The amount of fluorescence that remained associated with the beads was measured, and the signal was converted to percent free receptor (K44VHa-N56Q). […] Once the data had been collected for all samples in each series (500 fM and 50 pM K44VHa-N56Q), an isotherm was generated, which plotted the amount of free K44VHa-N56Q detected at each concentration of IL-21. The resulting 2 binding curves were then evaluated in a dual curve analysis using the instrument's evaluation software (KinExA Pro Software, v. 2.0.1.26, Sapidyne) from which individual KDS for each interaction were derived.
(§2) The binding of K44VHa-N56Q to human and cynomolgus monkey IL-21 was measured by KinExA. […]
(Kinetic exclusion samples the free partner from a solution-phase mixture.)

In experiment [2] the target is B2. In words: KinExA solution-phase equilibrium titration: fixed 500 fM K44VHa-N56Q (MEDI7169) IgG, cynomolgus monkey IL-21 varied; free IgG captured on IL-21-coated beads (the competitor). As to the method: as §1, §2
The target of experiment [3] is B1. In words: KinExA 3000, solution-phase equilibrium, dual curve analysis. As to the method: as §1, §2
Experiment [4] has as its target T1, recombinant human IL-21 (human, UniProt Q9HBE4 30-162, limits assumed).
T1 construct: also called huIL-21
The description is as above. As to the method: as §1, §2

The target of experiment [5] is T2, IL-21 (species not stated in the assay) (Homo sapiens (Human), UniProt Q9HBE4 25-162, Biotinylated in the competition ELISA of paragraph 259 (sites not given); unlabelled in the other results.). In words: cell-based or functional assay.
Experiment [6] concerns the target IL-2 (UniProt P60568 21-153). Briefly: ELISA on plate-coated cytokine (2 µg/ml). As to the method:
(§3) ELISA was used to test cross reactivity of lead clones. Cytokines tested include 11-2, IL-4, IL-7, IL-9, and IL-15. Maxisorp ELISA plate (NUNC) was coated with 2 μg/ml of different cytokines in PBS at 4° C. overnight. The plate was then blocked with 3% BSA in PBST (PBS+0.1% Tween) at room temperature for one hour. Purified lead clone IgGs were serially diluted in PBST+3% BSA and the mixture was then added to each ELISA plate well and further incubated at room temperature for half an hour. After washing, secondary antibody-HRP was added to each well for 1 hour. Wells were washed first with PBST and then with PBS and the TMB solution from Pierce was added to detect the secondary antibody. After 5′ the reaction was stopped by the addition of 1N sulfuric acid. The plates were then read in an ELISA reader at 450 nm to detect the binding.
On the technique in general: ELISA stands for enzyme-linked immunosorbent assay.

The target in experiment [7] is IL-15 (UniProt P40933 49-162). In words: ELISA on plate-coated cytokine (2 µg/ml). As to the method: as §3
In experiment [8] the target is T3, IL-4 (UniProt P05112 25-153).
T3 sequence (looked up): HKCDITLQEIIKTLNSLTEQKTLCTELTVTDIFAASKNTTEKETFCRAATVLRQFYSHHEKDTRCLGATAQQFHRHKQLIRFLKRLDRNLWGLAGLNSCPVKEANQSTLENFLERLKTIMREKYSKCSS
In words: ELISA on plate-coated cytokine (2 µg/ml). As to the method:
as §3

Experiment [9] concerns the target T4, IL-7 (UniProt P13232 26-177).
T4 sequence (looked up): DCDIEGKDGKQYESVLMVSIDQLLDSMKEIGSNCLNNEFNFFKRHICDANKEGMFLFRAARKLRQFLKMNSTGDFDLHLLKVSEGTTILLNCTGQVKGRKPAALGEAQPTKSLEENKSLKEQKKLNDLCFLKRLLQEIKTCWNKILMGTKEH
Briefly: ELISA on plate-coated cytokine (2 µg/ml). As to the method:
as §3

Experiment [10] addresses B1. Briefly: cell-based or functional assay.
Experiment [11] addresses T1, recombinant human IL-21. In words: cell-based or functional assay.
Experiment [12] has as its target B1. Briefly: cell-based or functional assay. This is another data set of the same source.
The target of experiment [13] is T1, recombinant human IL-21. Briefly: cell-based or functional assay. The source holds these as a separate data set.
In experiment [14] the target is B1. In words: cell-based or functional assay. This is another data set of the same source.
For experiment [15], the target named is T1, recombinant human IL-21. Briefly: cell-based or functional assay. This is another data set of the same source.
The target in experiment [16] is B1. In words: cell-based or functional assay. The source holds these as a separate data set.
The target of experiment [17] is T1, recombinant human IL-21. In words: cell-based or functional assay. This is another data set of the same source.
The target in experiment [18] is T2, IL-21 (species not stated in the assay). Briefly: method not stated.
Experiment [19] deals with T1, recombinant human IL-21. In words: method not stated for this clone (Table 2, column Kd hu).

T2 sequence (Q9HBE4 25-162 limits assumed): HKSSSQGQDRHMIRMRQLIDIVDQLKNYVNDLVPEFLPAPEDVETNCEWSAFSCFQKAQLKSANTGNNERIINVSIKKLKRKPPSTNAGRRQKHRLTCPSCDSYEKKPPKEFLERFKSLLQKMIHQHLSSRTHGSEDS
T1 sequence (Q9HBE4 30-162 limits assumed, form in doubt): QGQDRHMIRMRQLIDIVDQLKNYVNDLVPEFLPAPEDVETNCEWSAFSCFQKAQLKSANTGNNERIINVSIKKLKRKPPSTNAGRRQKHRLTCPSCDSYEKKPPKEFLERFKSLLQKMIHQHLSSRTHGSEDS
Sequence of IL-2 (P60568 21-153 limits assumed): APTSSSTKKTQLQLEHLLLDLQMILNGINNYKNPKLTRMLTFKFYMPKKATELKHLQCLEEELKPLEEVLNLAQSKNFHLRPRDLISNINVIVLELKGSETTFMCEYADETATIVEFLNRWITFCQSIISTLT
Sequence of IL-15 (P40933 49-162 limits assumed): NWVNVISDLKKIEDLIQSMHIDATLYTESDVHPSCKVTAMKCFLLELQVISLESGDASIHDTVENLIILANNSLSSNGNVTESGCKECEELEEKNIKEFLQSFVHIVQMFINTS

B1: the “IC50 (read off the curve)” value in experiment [1] was approximately 0.06 nM; in experiment [2], approximately 0.001 nM.

B2: the values for the Kd in experiment [3] and in experiment [4] were 0.000352 nM and 0.000515 nM, respectively. In experiment [5], the “maximal inhibition in pSTAT3 assay” value worked out at 100%. The binding result in [6], in experiment [7], in experiment [8] and in [9] was “no binding” throughout. Moreover, the figures for the “IC50 in PC differentiation assay (2 nM IL-21)” value in [10] and in experiment [11] were 1.06 nM and 0.777 nM, respectively. Further, the “IC50 in pSTAT3 assay (human PBMCs, 20 pM IL-21)” value in experiment [12] was determined as 19.3 pM; in experiment [13] it was 17.2 pM. In addition, the “IC50 in NK-92 cell assay (IFNγ, 200 pM IL-21)” value in experiment [14] was 80.8 pM; in [15], 92.7 pM.

B3: murine monoclonal antibody 9F11 (antibody, V domains shown)
VH: EVELVESGGGLVQPGGSMKLSCAASGFTFSDAWMDWVRQSPEKGLEWVAEIRSEADNHPTYYAESVKGRFTISRDDSKSSVYLQMNSLRAEDSGIYYCTEYDYEGFVHWGQGTLVTVSA
VL: DIVLTQSPASLAVSLGQRATISCRASKSVSTYGYSYMHWYQQKPGQPPKLLIYLASNLESGVPARFSGSGSGTDFTLNIHPVEEEDAATYYCQHSRELPLTFGAGTKLELK
notes: also called 9F11.1
Turning to B3, the figures for the “inhibition of IgG production by human B cells” value in experiment [16] and in experiment [17] were 79% and 97%, respectively. Further, in experiment [5], the “maximal inhibition in pSTAT3 assay” value amounted to 100%. The equilibrium dissociation constant (Kd) (commonly a measure of binding affinity in units of concentration) in [18] is 10 nM; in experiment [19], 0.00999 nM. Also, the binding result in [6], in experiment [8] and in experiment [9] was “no binding” each time. Besides, the “IC50 in PC differentiation assay (2 nM IL-21)” value in experiment [10] worked out at 74 nM; in experiment [11] it was 47.3 nM. Further, the “IC50 in pSTAT3 assay (human PBMCs, 20 pM IL-21)” value in [12] turned out to be 83.2 pM; in experiment [13], 21.7 pM. Besides, the “IC50 in NK-92 cell assay (IFNγ, 200 pM IL-21)” value turned out to be 867 pM in [14] and 462 pM in [15].

These data come from patent US20200164069A1 (BOSTON PHARMACEUTICALS, published 2020).
